How the values were obtained:
[1] = test system: bone-marrow derived macrophages (BMDM); assay: Dectin-1 expression in bone-marrow derived macrophages; assay type: cell-based, mouse; settings: cytokine added to day 8 BMDM cultures for 24h
Dectin-1 [2] = assay: Syk phosphorylation in WT and Dectin-1-/- macrophages; assay type: cell-based, mouse; settings: 10 ug/ml for 3 hours, WT vs Dectin-1-/- macrophages, flow cytometry
Experimental: (§1) To investigate if Galectin-9 can bind with Dectin-1, Protein G-magnet beads (2 ml; Dynabeads) were loaded with Dectin-1 IgG Fc (1 mg) or control IgG Fc before washing and blocking. Subsequently, beads were incubated with recombinant Galectin-9 (2 mg; R&D Systems) for 30 min, washed, and stained with PE-conjugated anti-Galectin-9 (Biolegend, San Diego Calif.). Galectin-9 specific staining was determined by flow cytometry. To investigate the interaction between Galectin-9 and Dectin-1 by ELISA, plates (Maxisorp, Nunc, St. Louis, Mo.) were coated with recombinant mouse Galectin-9 (2 mg; R&D Systems, Minneapolis, Minn.), Galectin-3, or Galectin-4 (both 2 mg; Biolegend) for 16 hours at 4° C., blocked with 1% BSA/PBS for 1 hour, and incubated with increasing doses of Dectin-1 IgG Fc or control IgG Fc for 2 hours. The Galectin-bound Dectin-1 IgG Fc was detected with anti-IgG-HRP. For affinity precipitation experiments, protein G-beads were loaded with Dectin-1 IgG Fc and were then incubated with the extract of 6 month old KC pancreata. Bead-bound precipitates were resuspended with loading buffer, resolved by SDS-PAGE under reduced conditions for western blotting using mAbs specific for Galectin-9. […] Dectin-1 signaling was measured by detection of secreted embryonic alkaline phosphatase. […] Syk phosphorylation was measured by flow cytometry at 3 hours.

murine Dectin-1 = biological target: T1, murine Dectin-1 (Mus musculus, UniProt Q6QLQ4); assay: Galectin-coated ELISA with murine Dectin-1 IgG Fc; assay type: binding; settings: galectin-coated plates; Galectin-3/-4/-9 comparison at 2.5 μg/ml Dectin-1 IgG Fc
T1 construct: purchased InvivoGen fc-mdec1a
T1 sequence (Q6QLQ4 71-244 limits assumed): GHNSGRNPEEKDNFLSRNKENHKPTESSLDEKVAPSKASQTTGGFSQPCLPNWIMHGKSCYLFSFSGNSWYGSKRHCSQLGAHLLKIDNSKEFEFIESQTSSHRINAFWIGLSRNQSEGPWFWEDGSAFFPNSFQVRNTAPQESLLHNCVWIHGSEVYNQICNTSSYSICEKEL
Experimental: To investigate if Galectin-9 can bind with Dectin-1, Protein G-magnet beads (2 ml; Dynabeads) were loaded with Dectin-1 IgG Fc (1 mg) or control IgG Fc before washing and blocking. Subsequently, beads were incubated with recombinant Galectin-9 ([…]; R&D Systems) for 30 min, washed, and stained with PE-conjugated anti-Galectin-9 (Biolegend, San Diego Calif.). Galectin-9 specific staining was determined by flow cytometry. To investigate the interaction between Galectin-9 and Dectin-1 by ELISA, plates (Maxisorp, Nunc, St. Louis, Mo.) were coated with recombinant mouse Galectin-9 ([…]; R&D Systems, Minneapolis, Minn.), Galectin-3, or Galectin-4 (both […]; Biolegend) for 16 hours at 4° C., blocked with 1% BSA/PBS for 1 hour, and incubated with increasing doses of Dectin-1 IgG Fc or control IgG Fc for 2 hours. The Galectin-bound Dectin-1 IgG Fc was detected with anti-IgG-HRP. For affinity precipitation experiments, protein G-beads were loaded with Dectin-1 IgG Fc and were then incubated with the extract of 6 month old KC pancreata. Bead-bound precipitates were resuspended with loading buffer, resolved by SDS-PAGE under reduced conditions for western blotting using mAbs specific for Galectin-9. To determine whether Galectin-9 induces Dectin-1 signaling, the Dectin-1 reporter HEK293 cell line^16 (Invivogen) was treated with recombinant Galectin-9 (1-10 μg/ml; R&D Systems), d-Zymosan (1-10 μg/ml), or Curdlan (10-100 μg/ml; both Invivogen). Dectin-1 signaling was measured by detection of secreted embryonic alkaline phosphatase. In other experiments, WT and Dectin-1^−/− splenic macrophages were treated in vitro with recombinant Galectin-9 (10 ug/ml). Syk phosphorylation was measured by flow cytometry at 3 hours.
(§2) Non-pathogen derived Dectin-1 ligands have not been well-characterized. […] Bead-IgG Fc complexes were incubated with recombinant Galectin-9 and then labeled with a fluorescently-conjugated αGalectin-9 mAb and tested for fluorescence by flow cytometry. […]

Dectin-1 IgG Fc = biological target: T2, Dectin-1 IgG Fc (Mus musculus, UniProt Q6QLQ4); assay: Protein G bead / flow cytometry Galectin-9-Dectin-1 binding; settings: recombinant Galectin-9, flow cytometry
T2 construct: purchased InvivoGen fc-mdec1a
T2 sequence (Q6QLQ4 71-244 limits assumed): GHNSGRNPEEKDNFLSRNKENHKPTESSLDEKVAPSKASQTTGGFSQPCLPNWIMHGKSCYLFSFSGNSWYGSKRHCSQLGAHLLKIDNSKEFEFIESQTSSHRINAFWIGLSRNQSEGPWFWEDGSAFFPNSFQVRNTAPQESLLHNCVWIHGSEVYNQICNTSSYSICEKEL
Experimental: as §1, with “anti-IgG-HRP.” for “anti-IgG-HRP. For affinity precipitation experiments, protein G-beads were loaded with Dectin-1 IgG Fc and were then incubated with the extract of 6 month old KC pancreata. Bead-bound precipitates were resuspended with loading buffer, resolved by SDS-PAGE under reduced conditions for western blotting using mAbs specific for Galectin-9.”
as §2

human Dectin-1 = assay: Galectin-9-coated ELISA with human Dectin-1 IgG Fc; assay type: binding; settings: Galectin-9 coated plates, increasing doses
Experimental: as §1, with “anti-IgG-HRP.” for “anti-IgG-HRP. For affinity precipitation experiments, protein G-beads were loaded with Dectin-1 IgG Fc and were then incubated with the extract of 6 month old KC pancreata. Bead-bound precipitates were resuspended with loading buffer, resolved by SDS-PAGE under reduced conditions for western blotting using mAbs specific for Galectin-9.”
as §2

Dectin-1 [3] = assay: Dectin-1 reporter HEK293 cell line (secreted embryonic alkaline phosphatase); assay type: cell-based; settings: low and high doses (1-10 μg/ml)
Experimental: as §1

Sequence of human Dectin-1 (Q9BXN2 114-247 limits assumed): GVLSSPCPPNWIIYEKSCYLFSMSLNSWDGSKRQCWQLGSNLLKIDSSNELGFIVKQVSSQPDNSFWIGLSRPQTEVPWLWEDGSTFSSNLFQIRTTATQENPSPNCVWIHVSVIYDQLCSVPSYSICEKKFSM

B1: IL-12: cytokine added to BMDM cultures (protein, UniProt P43431 23-215; P43432 23-335, looked up)
Interleukin-12 subunit alpha: RVIPVSGPARCLSQSRNLLKTTDDMVKTAREKLKHYSCTAEDIDHEDITRDQTSTLKTCLPLELHKNESCLATRETSSTTRGSCLPPQKTSLMMTLCLGSIYEDLKMYQTEFQAINAALQNHNHQQIILDKGMLVAIDELMQSLNHNGETLRQKPPVGEADPYRVKMKLCILLHAFSTRVVTINRVMGYLSSA
Interleukin-12 subunit beta: MWELEKDVYVVEVDWTPDAPGETVNLTCDTPEEDDITWTSDQRHGVIGSGKTLTITVKEFLDAGQYTCHKGGETLSHSHLLLHKKENGIWSTEILKNFKNKTFLKCEAPNYSGRFTCSWLVQRNMDLKFNIKSSSSSPDSRAVTCGMASLSAEKVTLDQRDYEKYSVSCQEDVTCPTAEETLPIELALEARQQNKYENYSTSFFIRDIIKPDPPKNLQMKPLKNSQVEVSWEYPDSWSTPHSYFSLKFFVRIQRKKEKMKETEEGCNQKGAFLVEKTSTEVQCKGGNVCVQAQDRYYNSSCSKWACVPCRVRS
Dectin-1 expression in BMDM [1]: did not influence Dectin-1 expression

B2: Galectin-9: recombinant Galectin-9 (R&D Systems), lectin identified as Dectin-1 ligand (protein)
chain: MALFSAQSPYINPIIPFTGPIQGGLQEGLQVTLQGTTKSFAQRFVVNFQNSFNGNDIAFHFNPRFEEGGYVVCNTKQNGQWGPEERKMQMPFQKGMPEFELCFLVQRSEFKVMVNKKFVQYQHRVPYHLVDTIAVSGCLKLSFITFQNSAAPVQHVFSTVQFSQPVQFPRTPKGRKQKTQNFRPAHQAPMAQTTIHMVHSTPGQMFSTPGIPPVVYPTPAYTIPFYTPIPNGLYPSKSIMISGNVLPDATRFHINLRCGGDIAFHLNPRFNENAVVRNTQINNSWGQEERSLLGRMPFSRGQSFSVWIICEGHCFKVAVNGQHMCEYYHRLKNLQDINTLEVAGDIQLTHVQT
Syk phosphorylation (Dectin-1 [2]): activated Syk in a Dectin-1-dependent manner
binding of murine Dectin-1 IgG Fc on ELISA (murine Dectin-1): dose-dependent manner
binding to bead-bound Dectin-1 IgG Fc (Dectin-1 IgG Fc): avidly ligated
binding of human Dectin-1 IgG Fc on ELISA (human Dectin-1): dose-dependent manner
Dectin-1 activation (NF-κB signaling) in reporter cells (Dectin-1 [3]): induced NF-κB signaling

B3: Galectin-4: recombinant Galectin-4 (Biolegend) coated on ELISA plates (protein, UniProt Q8K419 1-326, looked up)
Galectin-4: MAYVPAPGYQPTYNPTLPYKRPIPGGLSVGMSVYIQGMAKENMRRFHVNFAVGQDDGADVAFHFNPRFDGWDKVVFNTMQSGQWGKEEKKKSMPFQKGKHFELVFMVMPEHYKVVVNGNSFYEYGHRLPVQMVTHLQVDGDLELQSINFLGGQPAAAPYPGAMTIPAYPAGSPGYNPPQMNTLPVMTGPPVFNPRVPYVGALQGGLTVRRTIIIKGYVLPTARNFVINFKVGSSGDIALHLNPRIGDSVVRNSFMNGSWGAEERKVAYNPFGPGQFFDLSIRCGMDRFKVFANGQHLFDFSHRFQAFQMVDTLEINGDITLSYVQI
binding of murine Dectin-1 IgG Fc on ELISA (murine Dectin-1): did not avidly bind

B4: Galectin-3: recombinant Galectin-3 (Biolegend) coated on ELISA plates (protein, UniProt P16110 2-264, looked up)
Galectin-3: ADSFSLNDALAGSGNPNPQGYPGAWGNQPGAGGYPGAAYPGAYPGQAPPGAYPGQAPPGAYPGQAPPSAYPGPTAPGAYPGPTAPGAYPGQPAPGAFPGQPGAPGAYPQCSGGYPAAGPYGVPAGPLTVPYDLPLPGGVMPRMLITIMGTVKPNANRIVLDFRRGNDVAFHFNPRFNENNRRVIVCNTKQDNNWGKEERQSAFPFESGKPFKIQVLVEADHFKVAVNDAHLLQYNHRMKNLREISQLGISGDITLTSANHAMI
binding of murine Dectin-1 IgG Fc on ELISA (murine Dectin-1): did not avidly bind
